Test results reported in patent publication US20220306695A1, “COMPSTATIN ANALOGUES AND THEIR MEDICAL USES” (priority 2019, published 2022).
Positions of bridges follow the written chain, without caps; N, C: chain ends. Non-standard residues stand in square brackets, D forms with d. Trp(1-Me) = Cn1cc(C[C@H](N)C(=O)O)c2ccccc21; NMeI = CC[C@H](C)[C@H](NC)C(=O)O; Sar = CNCC(=O)O

B1: Compound 37 (peptide)
peptide: Ac-KEKICIWQDWGEHRCTEKE-NH2
modifications: disulfide 5-15
SMILES: CC[C@H](C)[C@@H]1NC(=O)[C@@H](NC(=O)[C@@H](NC(=O)[C@H](CCCCN)NC(=O)[C@H](CCC(=O)O)NC(=O)[C@H](CCCCN)NC(C)=O)[C@@H](C)CC)CSSC[C@@H](C(=O)N[C@H](C(=O)N[C@@H](CCC(=O)O)C(=O)N[C@@H](CCCCN)C(=O)N[C@@H](CCC(=O)O)C(N)=O)[C@@H](C)O)NC(=O)[C@H](CCCNC(=N)N)NC(=O)[C@H](Cc2c[nH]cn2)NC(=O)[C@H](CCC(=O)O)NC(=O)CNC(=O)[C@H](Cc2c[nH]c3ccccc23)NC(=O)[C@H](CC(=O)O)NC(=O)[C@H](CCC(N)=O)NC(=O)[C@H](Cc2c[nH]c3ccccc23)NC1=O
B2: Compound 55 (peptide)
peptide: Ac-EGSAICIWQDWGEHRCTE-NH2
modifications: disulfide 6-16
SMILES: CC[C@H](C)[C@H](NC(=O)[C@H](C)NC(=O)[C@H](CO)NC(=O)CNC(=O)[C@H](CCC(=O)O)NC(C)=O)C(=O)N[C@H]1CSSC[C@@H](C(=O)N[C@H](C(=O)N[C@@H](CCC(=O)O)C(N)=O)[C@@H](C)O)NC(=O)[C@H](CCCNC(=N)N)NC(=O)[C@H](Cc2c[nH]cn2)NC(=O)[C@H](CCC(=O)O)NC(=O)CNC(=O)[C@H](Cc2c[nH]c3ccccc23)NC(=O)[C@H](CC(=O)O)NC(=O)[C@H](CCC(N)=O)NC(=O)[C@H](Cc2c[nH]c3ccccc23)NC(=O)[C@H]([C@@H](C)CC)NC1=O
B3: Compound 36 (peptide)
peptide: Ac-ESEICIWQDWGEHRCEGE-NH2
modifications: disulfide 5-15
SMILES: CC[C@H](C)[C@@H]1NC(=O)[C@@H](NC(=O)[C@@H](NC(=O)[C@H](CCC(=O)O)NC(=O)[C@H](CO)NC(=O)[C@H](CCC(=O)O)NC(C)=O)[C@@H](C)CC)CSSC[C@@H](C(=O)N[C@@H](CCC(=O)O)C(=O)NCC(=O)N[C@@H](CCC(=O)O)C(N)=O)NC(=O)[C@H](CCCNC(=N)N)NC(=O)[C@H](Cc2c[nH]cn2)NC(=O)[C@H](CCC(=O)O)NC(=O)CNC(=O)[C@H](Cc2c[nH]c3ccccc23)NC(=O)[C@H](CC(=O)O)NC(=O)[C@H](CCC(N)=O)NC(=O)[C@H](Cc2c[nH]c3ccccc23)NC1=O
B4: Compound 39 (peptide)
peptide: Ac-ICIWQDWGEHRCTEGK-NH2
modifications: disulfide 2-12
SMILES: CC[C@H](C)[C@H](NC(C)=O)C(=O)N[C@H]1CSSC[C@@H](C(=O)N[C@H](C(=O)N[C@@H](CCC(=O)O)C(=O)NCC(=O)N[C@@H](CCCCN)C(N)=O)[C@@H](C)O)NC(=O)[C@H](CCCNC(=N)N)NC(=O)[C@H](Cc2c[nH]cn2)NC(=O)[C@H](CCC(=O)O)NC(=O)CNC(=O)[C@H](Cc2c[nH]c3ccccc23)NC(=O)[C@H](CC(=O)O)NC(=O)[C@H](CCC(N)=O)NC(=O)[C@H](Cc2c[nH]c3ccccc23)NC(=O)[C@H]([C@@H](C)CC)NC1=O
B5: Compound 66 (peptide)
peptide: Ac-YCIWQDWGEHRCTGAES-NH2
modifications: disulfide 2-12
SMILES: CC[C@H](C)[C@@H]1NC(=O)[C@@H](NC(=O)[C@H](Cc2ccc(O)cc2)NC(C)=O)CSSC[C@@H](C(=O)N[C@H](C(=O)NCC(=O)N[C@@H](C)C(=O)N[C@@H](CCC(=O)O)C(=O)N[C@@H](CO)C(N)=O)[C@@H](C)O)NC(=O)[C@H](CCCNC(=N)N)NC(=O)[C@H](Cc2c[nH]cn2)NC(=O)[C@H](CCC(=O)O)NC(=O)CNC(=O)[C@H](Cc2c[nH]c3ccccc23)NC(=O)[C@H](CC(=O)O)NC(=O)[C@H](CCC(N)=O)NC(=O)[C@H](Cc2c[nH]c3ccccc23)NC1=O
B6: Compound 75 (peptide)
peptide: Ac-SEFCI[Trp(1-Me)]QDWGEHRC[Sar]EA-NH2
modifications: disulfide 4-14
SMILES: CC[C@H](C)[C@@H]1NC(=O)[C@@H](NC(=O)[C@H](Cc2ccccc2)NC(=O)[C@H](CCC(=O)O)NC(=O)[C@H](CO)NC(C)=O)CSSC[C@@H](C(=O)N(C)CC(=O)N[C@@H](CCC(=O)O)C(=O)N[C@@H](C)C(N)=O)NC(=O)[C@H](CCCNC(=N)N)NC(=O)[C@H](Cc2c[nH]cn2)NC(=O)[C@H](CCC(=O)O)NC(=O)CNC(=O)[C@H](Cc2c[nH]c3ccccc23)NC(=O)[C@H](CC(=O)O)NC(=O)[C@H](CCC(N)=O)NC(=O)[C@H](Cc2cn(C)c3ccccc23)NC1=O
B7: Compound 47 (peptide)
peptide: Ac-ICIWQDWGAHRCTGAES-NH2
modifications: disulfide 2-12
SMILES: CC[C@H](C)[C@H](NC(C)=O)C(=O)N[C@H]1CSSC[C@@H](C(=O)N[C@H](C(=O)NCC(=O)N[C@@H](C)C(=O)N[C@@H](CCC(=O)O)C(=O)N[C@@H](CO)C(N)=O)[C@@H](C)O)NC(=O)[C@H](CCCNC(=N)N)NC(=O)[C@H](Cc2c[nH]cn2)NC(=O)[C@H](C)NC(=O)CNC(=O)[C@H](Cc2c[nH]c3ccccc23)NC(=O)[C@H](CC(=O)O)NC(=O)[C@H](CCC(N)=O)NC(=O)[C@H](Cc2c[nH]c3ccccc23)NC(=O)[C@H]([C@@H](C)CC)NC1=O
B8: Compound 48 (peptide)
peptide: H-[dY]ICI[Trp(1-Me)]QDW[Sar]AHRC[NMeI]-NH2
modifications: disulfide 3-13
SMILES: CC[C@H](C)[C@H](NC(=O)[C@H](N)Cc1ccc(O)cc1)C(=O)N[C@H]1CSSC[C@@H](C(=O)N(C)[C@H](C(N)=O)[C@@H](C)CC)NC(=O)[C@H](CCCNC(=N)N)NC(=O)[C@H](Cc2c[nH]cn2)NC(=O)[C@H](C)NC(=O)CN(C)C(=O)[C@H](Cc2c[nH]c3ccccc23)NC(=O)[C@H](CC(=O)O)NC(=O)[C@H](CCC(N)=O)NC(=O)[C@H](Cc2cn(C)c3ccccc23)NC(=O)[C@H]([C@@H](C)CC)NC1=O
B9: Compound 35 (peptide)
peptide: Ac-EGEICIWQDWGEHRCEGE-NH2
modifications: disulfide 5-15
SMILES: CC[C@H](C)[C@@H]1NC(=O)[C@@H](NC(=O)[C@@H](NC(=O)[C@H](CCC(=O)O)NC(=O)CNC(=O)[C@H](CCC(=O)O)NC(C)=O)[C@@H](C)CC)CSSC[C@@H](C(=O)N[C@@H](CCC(=O)O)C(=O)NCC(=O)N[C@@H](CCC(=O)O)C(N)=O)NC(=O)[C@H](CCCNC(=N)N)NC(=O)[C@H](Cc2c[nH]cn2)NC(=O)[C@H](CCC(=O)O)NC(=O)CNC(=O)[C@H](Cc2c[nH]c3ccccc23)NC(=O)[C@H](CC(=O)O)NC(=O)[C@H](CCC(N)=O)NC(=O)[C@H](Cc2c[nH]c3ccccc23)NC1=O
B10: Compound 51 (peptide)
peptide: Ac-ICI[Trp(1-Me)]QDWGEHRCTGAES-NH2
modifications: disulfide 2-12
SMILES: CC[C@H](C)[C@H](NC(C)=O)C(=O)N[C@H]1CSSC[C@@H](C(=O)N[C@H](C(=O)NCC(=O)N[C@@H](C)C(=O)N[C@@H](CCC(=O)O)C(=O)N[C@@H](CO)C(N)=O)[C@@H](C)O)NC(=O)[C@H](CCCNC(=N)N)NC(=O)[C@H](Cc2c[nH]cn2)NC(=O)[C@H](CCC(=O)O)NC(=O)CNC(=O)[C@H](Cc2c[nH]c3ccccc23)NC(=O)[C@H](CC(=O)O)NC(=O)[C@H](CCC(N)=O)NC(=O)[C@H](Cc2cn(C)c3ccccc23)NC(=O)[C@H]([C@@H](C)CC)NC1=O
B11: Compound 42 (peptide)
peptide: Ac-SAICIWQDWGEHRCTEG-NH2
modifications: disulfide 4-14
SMILES: CC[C@H](C)[C@H](NC(=O)[C@H](C)NC(=O)[C@H](CO)NC(C)=O)C(=O)N[C@H]1CSSC[C@@H](C(=O)N[C@H](C(=O)N[C@@H](CCC(=O)O)C(=O)NCC(N)=O)[C@@H](C)O)NC(=O)[C@H](CCCNC(=N)N)NC(=O)[C@H](Cc2c[nH]cn2)NC(=O)[C@H](CCC(=O)O)NC(=O)CNC(=O)[C@H](Cc2c[nH]c3ccccc23)NC(=O)[C@H](CC(=O)O)NC(=O)[C@H](CCC(N)=O)NC(=O)[C@H](Cc2c[nH]c3ccccc23)NC(=O)[C@H]([C@@H](C)CC)NC1=O
B12: Compound 38 (peptide)
peptide: Ac-EKGICIWQDWGEHRCTEKP-NH2
modifications: disulfide 5-15
SMILES: CC[C@H](C)[C@H](NC(=O)CNC(=O)[C@H](CCCCN)NC(=O)[C@H](CCC(=O)O)NC(C)=O)C(=O)N[C@H]1CSSC[C@@H](C(=O)N[C@H](C(=O)N[C@@H](CCC(=O)O)C(=O)N[C@@H](CCCCN)C(=O)N2CCC[C@H]2C(N)=O)[C@@H](C)O)NC(=O)[C@H](CCCNC(=N)N)NC(=O)[C@H](Cc2c[nH]cn2)NC(=O)[C@H](CCC(=O)O)NC(=O)CNC(=O)[C@H](Cc2c[nH]c3ccccc23)NC(=O)[C@H](CC(=O)O)NC(=O)[C@H](CCC(N)=O)NC(=O)[C@H](Cc2c[nH]c3ccccc23)NC(=O)[C@H]([C@@H](C)CC)NC1=O
B13: Compound 62 (peptide)
peptide: Ac-YCI[Trp(1-Me)]QDWGEHRCTGAES-NH2
modifications: disulfide 2-12
SMILES: CC[C@H](C)[C@@H]1NC(=O)[C@@H](NC(=O)[C@H](Cc2ccc(O)cc2)NC(C)=O)CSSC[C@@H](C(=O)N[C@H](C(=O)NCC(=O)N[C@@H](C)C(=O)N[C@@H](CCC(=O)O)C(=O)N[C@@H](CO)C(N)=O)[C@@H](C)O)NC(=O)[C@H](CCCNC(=N)N)NC(=O)[C@H](Cc2c[nH]cn2)NC(=O)[C@H](CCC(=O)O)NC(=O)CNC(=O)[C@H](Cc2c[nH]c3ccccc23)NC(=O)[C@H](CC(=O)O)NC(=O)[C@H](CCC(N)=O)NC(=O)[C@H](Cc2cn(C)c3ccccc23)NC1=O
B14: Compound 46 (peptide)
peptide: Ac-ESSAICIWQDWGAHRCT-NH2
modifications: disulfide 6-16
SMILES: CC[C@H](C)[C@H](NC(=O)[C@H](C)NC(=O)[C@H](CO)NC(=O)[C@H](CO)NC(=O)[C@H](CCC(=O)O)NC(C)=O)C(=O)N[C@H]1CSSC[C@@H](C(=O)N[C@H](C(N)=O)[C@@H](C)O)NC(=O)[C@H](CCCNC(=N)N)NC(=O)[C@H](Cc2c[nH]cn2)NC(=O)[C@H](C)NC(=O)CNC(=O)[C@H](Cc2c[nH]c3ccccc23)NC(=O)[C@H](CC(=O)O)NC(=O)[C@H](CCC(N)=O)NC(=O)[C@H](Cc2c[nH]c3ccccc23)NC(=O)[C@H]([C@@H](C)CC)NC1=O

molecular target: Human C3 (human, UniProt P01024 23-1663); assay: cell-based or functional assay
Sequence (P01024 23-1663 limits assumed): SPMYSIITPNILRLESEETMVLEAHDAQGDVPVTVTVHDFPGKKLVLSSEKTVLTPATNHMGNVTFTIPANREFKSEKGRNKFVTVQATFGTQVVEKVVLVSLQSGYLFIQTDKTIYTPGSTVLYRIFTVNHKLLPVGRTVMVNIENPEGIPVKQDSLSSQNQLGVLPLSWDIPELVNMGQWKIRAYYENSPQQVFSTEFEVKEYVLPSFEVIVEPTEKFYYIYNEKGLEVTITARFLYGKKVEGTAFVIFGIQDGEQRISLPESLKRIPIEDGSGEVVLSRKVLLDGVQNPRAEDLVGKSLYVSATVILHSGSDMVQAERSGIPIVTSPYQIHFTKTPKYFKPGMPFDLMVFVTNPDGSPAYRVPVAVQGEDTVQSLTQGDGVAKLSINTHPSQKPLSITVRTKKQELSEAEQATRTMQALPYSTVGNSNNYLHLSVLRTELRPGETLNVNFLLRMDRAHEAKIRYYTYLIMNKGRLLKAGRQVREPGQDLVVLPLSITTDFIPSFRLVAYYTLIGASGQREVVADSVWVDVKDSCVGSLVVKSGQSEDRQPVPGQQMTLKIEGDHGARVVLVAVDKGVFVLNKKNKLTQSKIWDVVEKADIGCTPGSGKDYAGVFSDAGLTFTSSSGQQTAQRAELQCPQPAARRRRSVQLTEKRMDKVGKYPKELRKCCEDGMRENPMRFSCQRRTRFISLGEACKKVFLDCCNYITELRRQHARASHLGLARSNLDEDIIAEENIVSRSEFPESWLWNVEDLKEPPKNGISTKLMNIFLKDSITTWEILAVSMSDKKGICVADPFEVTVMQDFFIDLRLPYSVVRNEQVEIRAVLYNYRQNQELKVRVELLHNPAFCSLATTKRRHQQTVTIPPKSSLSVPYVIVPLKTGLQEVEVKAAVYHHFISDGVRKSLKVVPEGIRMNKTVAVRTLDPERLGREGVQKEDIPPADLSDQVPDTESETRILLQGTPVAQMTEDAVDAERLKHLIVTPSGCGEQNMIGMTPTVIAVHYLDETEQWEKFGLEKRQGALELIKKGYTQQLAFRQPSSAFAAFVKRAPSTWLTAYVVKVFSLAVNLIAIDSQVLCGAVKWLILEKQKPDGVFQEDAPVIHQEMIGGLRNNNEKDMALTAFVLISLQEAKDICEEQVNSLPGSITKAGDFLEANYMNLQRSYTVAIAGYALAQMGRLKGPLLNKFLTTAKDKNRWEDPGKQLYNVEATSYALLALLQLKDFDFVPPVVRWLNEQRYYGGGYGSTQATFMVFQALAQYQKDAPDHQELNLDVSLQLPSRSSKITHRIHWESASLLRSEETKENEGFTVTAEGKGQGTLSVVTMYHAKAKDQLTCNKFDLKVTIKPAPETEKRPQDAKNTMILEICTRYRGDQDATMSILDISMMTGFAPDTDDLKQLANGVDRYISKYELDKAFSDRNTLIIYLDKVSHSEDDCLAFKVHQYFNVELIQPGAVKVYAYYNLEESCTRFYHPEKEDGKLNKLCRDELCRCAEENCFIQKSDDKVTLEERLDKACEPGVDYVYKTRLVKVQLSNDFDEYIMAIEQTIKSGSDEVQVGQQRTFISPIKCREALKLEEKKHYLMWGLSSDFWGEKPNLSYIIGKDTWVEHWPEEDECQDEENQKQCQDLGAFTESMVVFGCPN

Binder	IC50[nM], inhibition of hemolysis
B1	< 250 nM
B2	< 250 nM
B3	< 250 nM
B4	< 100 nM
B5	< 100 nM
B6	< 100 nM
B7	< 100 nM
B8	< 100 nM
B9	< 500 nM
B10	< 100 nM
B11	< 250 nM
B12	< 250 nM
B13	< 100 nM
B14	< 100 nM
